From US10149922B1, “Engineered collagen matrices for myocardial therapy” (The Board of Trustees of the Leland Stanford Junior …, priority 2012, dated 2018)

Tests used:
[1] = system: FSTL1-induced proliferation of immature cardiomyocytes; test: Screen of signal transduction inhibitors on FSTL1-induced proliferation; type: cell-based; settings: EMD StemSelect compound library
Method: (§1) Experiments were conducted to analyze the proliferative response of early cardiomyocytes to FSTL1. 7 days following FSTL1 treatment, we observed that a remarkable 50% of the differentially expressed transcripts are known targets of the JAK/STAT and interferon related (IFR) pathways.

[2] = system: mESC-derived immature cardiomyocytes (mCM-d2); test: Number of α-actinin+ cardiomyocytes in mCM-d2 cultures; type: cell-based, mouse; settings: 10 ng/ml, eight days of treatment
Method: (§2) H2B-mCherry EMCs were maintained in DMEM with 10% FBS and antibiotics/antimycotic. Myh6-Puro^r;Rex-Blast^r mESCs were generated by Lentiviral transduction and Blasticidin selection, and then cultured. For cardiac differentiation, ESCs were cultured in Iscove's Modified Dulbecco Media (IMDM) supplemented with 10% FBS, 2 mM glutamine, 4.5×10^−4 M monothioglycerol, 0.5 mM ascorbic acid, 200 ug/mL transferrin (Roche), 5% protein-free hybridoma media (PFHM-II, Invitrogen) and antibiotics/antimycotic and differentiated as either embryoid bodies (EBs) formation or monolayer. Puromycin was added at differentiation day 10 for two days to enrich cardiomyocyte. The cells were then trypsinized and plated as monolayer cardiomyocytes. Conditioned media were collected after 2 days culturing of confluent EMC cells and passed through 0.22 um filters (Millipore). Control conditioned media were prepared the same way without EMC cells. Recombinant Fstl1 was purchased from ADIPO BIOSCIENCE.
We utilized an epicardial/mesothelial cell line (EMC) to investigate the interaction between epicardium and myocardium.
We applied 10 ng/ml purified hFstl1 onto the mCM-d2 system of ESC-derived early cardiomyocytes, similarly to the coculture and conditioned media experiments described in FIG. 2.

[3] = system: mESC-derived immature cardiomyocytes (mCM-d2); test: Q-RT-PCR of cardiac-specific markers in mCM-d2; type: cell-based, mouse; settings: 10 ng/ml, eight days of treatment
Method: as §2
Total RNA was extracted with TRIzol (Invitrogen) and reverse transcribed to cDNA with QuantiTect Reverse Transcription Kit (Qiagen) according to the manufacturer's instructions. cDNA samples synthesized from 100 ng of total RNA were subjected to RT-QPCR with LightCycler 480 SYBR Green I Master kit (Roche) performed with LightCycler 480 Real-Time PCR System (Roche).

[4] = system: mESC-derived immature cardiomyocytes (mCM-d2); test: Kinetic Image Cytometry of rhythmic calcium transients in mCM-d2; type: cell-based, mouse; settings: 10 ng/ml, eight days of treatment, mCM-d2, KIC analysis
Method: as §2
Kinetic Image Cytometer from Vala was used as instructed to record intracellular calcium transient with Fluo4 NW calcium indicator (Life Science). Data was processed using Cyteseer (Vala).

[5] = system: mCM-d2; test: phospho-Histone3 proliferation in mCM-d2; type: cell-based, mouse; settings: mCM-d2 treated for 48 hrs
[6] = system: Neonate Rat Ventricular Cardiomyocytes (NRVC); test: Cell cycle profile of neonate rat ventricular cardiomyocytes (flow cytometry); type: cell-based; settings: NRVC treated for 24 hours
Method: Ventricular cardiomyocytes were isolated with neonatal rat cardiomyocyte isolation kit (Cellutron) and cultured at 37° C. with 5% CO2. In brief, ventricles were dissected from 1-2-d-old Hsd:SD rats (Sprage Dawley), then digested five times for 15 min each with the enzyme cocktail at 37° C. Cells were pooled, preplated for 90 min on an uncoated dish to remove fibroblasts, and plated on 1% gelatin-coated cell culture plastic dishes in high-serum media (DME/F12 [1:1], 0.2% BSA, 3 mM sodium-pyruvate, 0.1 mM ascorbic acid, 4 mg/liter transferrin, 2 mM L-glutamine, and 5 mg/liter ciprofloxacin supplemented with 10% horse serum and 5% FCS) at 3×10^5 cells/cm2. After 24 h, media was changed to low-serum medium (same but with 0.25% FCS) and cultured until use.
The cell cycle profile of cardiac cells was analyzed as described. In brief, cells were fixed for 1 h at 4° C. with 0.25% PFA and then permeabilized for 15 min at 37° C. with 0.2% Tween 20 before incubation with α-actinin and secondary antibodies (Alexa 488—conjugated anti-mouse Ig) diluted 1:100 in FACS buffer (PBS with 1% goat serum and 0.1% NaN3). Cells were then stained with 10 μg/ml propidium iodide in FACS buffer supplemented with 500 μg/ml of RNAase A. Flow cytometry was performed on BD FACSCanto. FlowJo and ModFit software were used to analyze the results.

[7] = system: early cardiomyocytes; test: Whole transcriptome profiling of early cardiomyocytes after FSTL1 treatment; type: cell-based; settings: 7 days following FSTL1 treatment
Method: In one approach, whole transcriptome profiling after long and short term treatment is used. Transcriptome profiling is a common approach to gain insight into signaling pathways through the analysis of pathway selective gene expression. Responsive cells selected in the previous experiments are incubated with FSTL1 for 24 hours (short-term) or 7 day (long-term). Transcripts are profiled using microarrays (Affymetrix). Candidate factors are then validated functionally using small molecule inhibitors (if available) and/or siRNA.
as §1

[8] = system: mouse MI model; test: Route of FSTL1 delivery in the mouse MI model; type: in vivo; settings: compared to epicardial-localized delivery
From the text: Key variables, including time of delivery and the effectiveness following reperfusion. A second critical issue concerns the localized site of FSTL1 delivery. Systemic delivery was not effective in the mouse MI model, compared to epicardial-localized delivery. However, the present the epicardial biomaterial patch itself may provide an effective physical support that could synergize with a systemic FSTL1 delivery. FSTL1 must be delivered epicardial to be effective, and may done by impregnated into the collagen of the patch.

Molecule | effect on FSTL1-induced proliferation [1] | increase in the number of cardiomyocytes [2] [fold] | increase in mRNA content of contractile proteins (including Myh6, Mlc2v, and Mlc2a) [3] | increase in the number of cardiomyocytes displaying rhythmic calcium transient [4] | phospho-Histone3+ cells [5] | percentage of cells in S/G2/M phase [6] | differentially expressed transcripts that are known targets of the JAK/STAT and interferon related (IFR) pathways [7] [%] | efficacy of systemic delivery [8]
C[C@H](NC(=O)/C(C#N)=C/c1cccc(Br)n1)c1ccccc1 [WP1066] | blocked |  |  |  |  |  |  | 
Fstl1: Secreted glycoprotein encoded by the FSTL1 gene (SEQ ID NO: 1, UniProt Q12841); recombinant protein purchased from ADIPO BIOSCIENCE (protein, listed as Homo sapiens) MWKRWLALALALVAVAWVRAEEELRSKSKICANVFCGAGRECAVTEKGEPTCLCIEQCKPHKRPVCGSNGKTYLNHCELHRDACLTGSKIQVDYDGHCKEKKSVSPSASPVVCYQSNRDELRRRIIQWLEAEIIPDGWFSKGSNYSEILDKYFKNFDNGDSRLDSSEFLKFVEQNETAINITTYPDQENNKLLRGLCVDALIELSDENADWKLSFQEFLKCLNPSFNPPEKKCALEDETYADGAETEVDCNRCVCACGNWVCTAMTCDGKNQKGAQTQTEEEMTRYVQELQKHQETAEKTKRVSTKEI |  | 4 | 2-3 folds | 7-8 folds | significantly more | significantly increased | 50 | not effective
